*: point of attachment. FITC = O=C1OC2(c3ccc(O)cc3Oc3cc(O)ccc32)c2ccc(NC(=S)*)cc21
Key:
Settings in all cases: both partners purified
KLC2^TPR-myc (wild type) [1] = target: T1, KLC2^TPR-myc (wild type) (murine, UniProt O88448 190-479); test: fluorescence polarisation; competition: FITC-LFP peptide (300 nM) and KLC2^TPR-myc fixed at 21 μM, 2-fold serial dilutions of unlabelled CSTN-WD1 peptide or Trp-JIP3^LZ; 0.1 M NaCl, 25 mM HEPES, 5 mM MgCl2, 1 mM TCEP, pH 7.5; competitive inhibition model
T1 construct: kinesin light chain 2 (KLC2), murine, TPR domain, residues 191-480; also called KLC2^TPR-myc protein; source: E. coli BL21(DE3) Rosetta, purified (His-trap, ULP1 cleavage, SEC); not shown: His6-SUMO, N-terminal, cleaved

[2] = target: KLC2^TPR-myc third TPR1 mutant, printed as L220Y in Table S2 (mouse, UniProt O88448 191-480); test: ITC; FITC-CSTN-WD2 peptide as titrant (380 uM) into wild-type or mutant KLC2^TPR-myc (44-50 uM) in the cell; 25 C; 0.1 M NaCl, 25 mM HEPES, 1 mM TCEP, pH 7.5; 2-3 experiments globally fitted with the model A + B -> AB; apparent stoichiometry Napp
KLC2^TPR-myc (wild type) [3] = target: T1, KLC2^TPR-myc (wild type); test: fluorescence polarisation; FITC-LFP peptide (300 nM) with 2-fold dilutions of KLC2^TPR-myc; 0.1 M NaCl, 25 mM HEPES, 5 mM MgCl2, 1 mM TCEP, pH 7.5; 1 hour, room temperature; fluorescence anisotropy
[4] = target: T2, KLC2^TPR-myc Gln^223Lys mutant (murine, UniProt O88448 190-479, Gln^223Lys); test: ITC; wild-type or mutant KLC2^TPR-myc (44-50 μM) in the cell; Trp-JIP3^LZ (dimer 297-330 μM) or FITC-CSTN-WD2 peptide (380 μM) as titrant; 0.1 M NaCl, 25 mM HEPES, 1 mM TCEP, pH 7.5
T2 construct: kinesin light chain 2 (KLC2), murine, TPR domain, residues 191-480; source: E. coli BL21(DE3) Rosetta, purified (His-trap, ULP1 cleavage, SEC); not shown: His6-SUMO, N-terminal, cleaved

KLC2^TPR-myc (wild type) [5] = target: T1, KLC2^TPR-myc (wild type); test: as above
[6] = target: T3, KLC2^TPR-myc Tyr^208Ala mutant (murine, UniProt O88448 190-479, Tyr^208Ala); test: as above
T3 construct: kinesin light chain 2 (KLC2), murine, TPR domain, residues 191-480; source: E. coli BL21(DE3) Rosetta, purified (His-trap, ULP1 cleavage, SEC); not shown: His6-SUMO, N-terminal, cleaved

[7] = target: T4, KLC2^TPR-myc Thr^200Asp mutant (murine, UniProt O88448 190-479, Thr^200Asp); test: as above
T4 construct: kinesin light chain 2 (KLC2), murine, TPR domain, residues 191-480; source: E. coli BL21(DE3) Rosetta, purified (His-trap, ULP1 cleavage, SEC); not shown: His6-SUMO, N-terminal, cleaved
T4 sequence (O88448 other isoform, or with tags, fused parts or gaps Thr^200Asp | Thr^200Asp | mutant): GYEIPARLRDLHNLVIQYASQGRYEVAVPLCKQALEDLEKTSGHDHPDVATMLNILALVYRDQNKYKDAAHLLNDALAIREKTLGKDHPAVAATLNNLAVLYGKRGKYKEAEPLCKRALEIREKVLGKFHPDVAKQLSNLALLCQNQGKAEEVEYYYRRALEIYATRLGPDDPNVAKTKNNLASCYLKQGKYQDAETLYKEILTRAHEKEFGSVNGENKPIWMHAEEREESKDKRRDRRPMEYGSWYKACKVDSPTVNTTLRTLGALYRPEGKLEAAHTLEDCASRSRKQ

T1 sequence (O88448 190-479): as the sequence (O88448 other isoform, or with tags, fused parts or gaps Thr^200Asp | Thr^200Asp | mutant) above, with D10T counted along it
Chain of KLC2^TPR-myc third TPR1 mutant, printed as L220Y in Table S2 (O88448 other isoform, or with tags, fused parts or gaps L220Y): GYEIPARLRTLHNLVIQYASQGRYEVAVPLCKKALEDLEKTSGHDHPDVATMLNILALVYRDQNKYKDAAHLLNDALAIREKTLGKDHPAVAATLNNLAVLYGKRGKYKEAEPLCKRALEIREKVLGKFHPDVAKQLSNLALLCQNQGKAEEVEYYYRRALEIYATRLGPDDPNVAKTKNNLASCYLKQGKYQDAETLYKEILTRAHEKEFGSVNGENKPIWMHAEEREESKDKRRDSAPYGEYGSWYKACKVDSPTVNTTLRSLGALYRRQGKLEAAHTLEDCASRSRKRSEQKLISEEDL
T2 sequence (O88448 other isoform, or with tags, fused parts or gaps Gln^223Lys | Gln^223Lys | mutant): as the sequence (O88448 other isoform, or with tags, fused parts or gaps Thr^200Asp | Thr^200Asp | mutant) above, with D10T, Q33K counted along it
T3 sequence (O88448 other isoform, or with tags, fused parts or gaps Tyr^208Ala | Tyr^208Ala | mutant): as the sequence (O88448 other isoform, or with tags, fused parts or gaps Thr^200Asp | Thr^200Asp | mutant) above, with D10T, Y18A counted along it

B1: N-terminally acetylated CSTN-WD1 peptide (Ac-GKENEMDWDDSALTITVN-COOH) (peptide)
peptide: Ac-GKENEMDWDDSALTITVN-OH
notes: tryptophan-acidic motif WD1 of calsyntenin-1; also called calsyntenin-1 peptide; tryptophan-acidic peptide; source: synthetic peptide (Peptide Synthesis Laboratory, Francis Crick Institute, UK)
Ki (KLC2^TPR-myc (wild type) [1]): 11.3 µM

B2: FITC-labeled CSTN(WD2) peptide (FITC-TRQLEWDDSTL-COOH) (peptide)
peptide: {FITC}-TRQLEWDDSTL-OH
notes: tryptophan-acidic peptide (WD2 motif) derived from calsyntenin-1; also called FITC-CSTN-WD2 peptide; source: synthetic peptide; bought: Biomatik
Ka [2]: 739000 M⁻¹
stoichiometry N [2]: 0.71

B3: FITC-labeled KLC2 LFP motif peptide (FITC-DSLDDLFPNEDEQS-COOH) (peptide)
peptide: {FITC}-DSLDDLFPNEDEQS-OH
notes: LFP motif (KLC2 residues 167-169) of the acidic linker of kinesin light chain 2; also called FITC-LFP peptide; FITC-labelled LFP-motif peptide; source: synthetic peptide, bought: Biomatik
Kd (KLC2^TPR-myc (wild type) [3]): 37 µM

B4: FITC-labeled CSTN(WD2) peptide (FITC-TRQLEWDDSTL-COOH) (peptide)
peptide: {FITC}-TRQLEWDDSTL-OH
notes: tryptophan-acidic motif WD2 of calsyntenin-1; also called FITC-CSTN-WD2 peptide; tryptophan-acidic cargo peptide; source: synthetic peptide, bought: Biomatik
stoichiometry N [4]: ~0.7
stoichiometry N (KLC2^TPR-myc (wild type) [5]): ~0.7
stoichiometry N [6]: ~0.7
stoichiometry N [7]: ~0.7

Source: article PMC6224480, “Insights into Kinesin-1 Activation from the Crystal Structure of KLC2 Bound to JIP3” (Structure(London, England:1993), 2018)
